# Laboratory results reported in patent publication US20090060916A1 (published 2009).
# Residue numbers refer to the chain shown, from its start. Several values for one entry are separate records, joined by “and”; a condition that tells them apart may be missing. Equal values may be shown once.
# T1: human IL-4 (human, UniProt P05112 25-153, biotinylated in the receptor binding assay and on the Biacore chip)
# T1 construct: also called interleukin-4; biotinylated IL-4
# T1 sequence (looked up): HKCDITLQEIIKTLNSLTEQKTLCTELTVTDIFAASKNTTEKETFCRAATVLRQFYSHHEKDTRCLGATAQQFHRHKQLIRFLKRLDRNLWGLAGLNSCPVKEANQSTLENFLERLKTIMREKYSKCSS
# B1: DOM10-212-TVAAPS-DOM9-155-78 (bispecific antibody)
# chain: DIQMTQSPSSLSASVGDRVTITCRASSVILNELHWYQQKPGKAPKLLISAVSRLQSGVPSRFSGSGSGTDFTLTISSLQPEDFATYYCLQTFWGPFTFGQGTKVEIKRTVAAPSDIQMTQSPSSLSASVGDRVTITCRASRHIGDWLHWYQQKPGKAPKLLIAWASTLDSGVPSRFSGSGSGTDFTLTISSLQPEDFATYYCLQEGWGPPTFGQGTKVEIKR
# notes: in-line fusion, from pDOM5
# B2: DOM9-112-210-ASTKGPS-DOM10-236 (bispecific antibody)
# chain: EVQLLESGGGLVQPGGSLRLSCAASGFTFRNFGMGWVRQAPGKGLEWVSWIISSGTETYYADSVKGRFTISRDNSKNTLYLQMNSLRAEDTAVYYCAKSLGRFDYWGQGTLVTVSSASTKGPSEVQLLESGGGLVQPGGSLRLSCAASGFTFPKYDMMWVRQAPGKGLEWVSSIDHLGVNTYYADSVKGRFTISRDNSKNTLYLQMNSLRAEDTAVYYCAKESDWPSFDYWGQGTLVTVSS
# notes: in-line fusion, from pDOM5
# B3: DOM9-112-210-ASTKGPS-DOM10-208 (bispecific antibody)
# chain: EVQLLESGGGLVQPGGSLRLSCAASGFTFRNFGMGWVRQAPGKGLEWVSWIISSGTETYYADSVKGRFTISRDNSKNTLYLQMNSLRAEDTAVYYCAKSLGRFDYWGQGTLVTVSSASTKGPSDIQMTQSPSSLSASVGDRVTITCRASSPITDGLAWYQQKPGKAPKLLIDTGSRLQSGVPSRFSGSGSGTDFTLTISSLQPEDFATYYCRQGAMGSYTFGQGTKVEIKR
# notes: in-line fusion, from pDOM5
# B4: DOM9-112-210-ASTKGPS-DOM10-273 (bispecific antibody)
# chain: EVQLLESGGGLVQPGGSLRLSCAASGFTFRNFGMGWVRQAPGKGLEWVSWIISSGTETYYADSVKGRFTISRDNSKNTLYLQMNSLRAEDTAVYYCAKSLGRFDYWGQGTLVTVSSASTKGPSEVQLLESGGGLVQPGGSLRLSCAASGFTFELEEMDWVRQAPGKGLEWVSSISGSGGSTYYADSVKGRFTISRDNSKNTLYLQMNSLRAEDTAVYYCAKAYTGFDYWGQGTLVTVSS
# notes: in-line fusion, from pDOM5
# B5: DOM9-112-210-ASTKGPS-DOM10-416 (bispecific antibody)
# chain: B4 chain with E153K, L154G, E155S, S173T, G176A, S177D, G179R, S180E, A222S, G225S
# notes: in-line fusion, from pDOM5
# B6: DOM9-112-210-ASTKGPS-DOM10-277 (bispecific antibody)
# chain: EVQLLESGGGLVQPGGSLRLSCAASGFTFRNFGMGWVRQAPGKGLEWVSWIISSGTETYYADSVKGRFTISRDNSKNTLYLQMNSLRAEDTAVYYCAKSLGRFDYWGQGTLVTVSSASTKGPSEVQLLESGGGLVQPGGSLRLSCAASGFTFSSYEMDWVRQAPGKGLEWVSTISADGVTTYYADSVKGRFTISRDNSKNTLYLQMNSLRAEDTAVYYCAKAFDAFDYWGQGTLVTVSS
# notes: in-line fusion, from pDOM5
# B7: DOM10-270-TVAAPS-DOM9-155-78 (bispecific antibody)
# chain: B1 chain with F96Y
# notes: in-line fusion, from pDOM5
# B8: DOM9-112-210-ASTKGPS-DOM10-213 (bispecific antibody)
# chain: EVQLLESGGGLVQPGGSLRLSCAASGFTFRNFGMGWVRQAPGKGLEWVSWIISSGTETYYADSVKGRFTISRDNSKNTLYLQMNSLRAEDTAVYYCAKSLGRFDYWGQGTLVTVSSASTKGPSDIQMTQSPSSLSASVGDRVTITCRASQAIPWGLNWYQQKPGKAPKLLIYDVSSLQSGVPSRFSGSGSGTDFTLTISSLQPEDFATYYCQQDIHIPMTFGQGTKVEIKR
# notes: in-line fusion, from pDOM5
# B9: DOM10-208-TVAAPS-DOM9-155-78 (bispecific antibody)
# chain: DIQMTQSPSSLSASVGDRVTITCRASSPITDGLAWYQQKPGKAPKLLIDTGSRLQSGVPSRFSGSGSGTDFTLTISSLQPEDFATYYCRQGAMGSYTFGQGTKVEIKRTVAAPSDIQMTQSPSSLSASVGDRVTITCRASRHIGDWLHWYQQKPGKAPKLLIAWASTLDSGVPSRFSGSGSGTDFTLTISSLQPEDFATYYCLQEGWGPPTFGQGTKVEIKR
# notes: in-line fusion, from pDOM5
# B10: DOM10-213-TVAAPS-DOM9-155-78 (bispecific antibody)
# chain: DIQMTQSPSSLSASVGDRVTITCRASQAIPWGLNWYQQKPGKAPKLLIYDVSSLQSGVPSRFSGSGSGTDFTLTISSLQPEDFATYYCQQDIHIPMTFGQGTKVEIKRTVAAPSDIQMTQSPSSLSASVGDRVTITCRASRHIGDWLHWYQQKPGKAPKLLIAWASTLDSGVPSRFSGSGSGTDFTLTISSLQPEDFATYYCLQEGWGPPTFGQGTKVEIKR
# notes: in-line fusion, from pDOM5
# B11: DOM10-215-TVAAPS-DOM9-155-78 (bispecific antibody)
# chain: DIQMTQSPSSLSASVGDRVTITCRASQNIFADLNWYQQKPGKAPKLLIYMGSRLQSGVPSRFSGSGSGTDFTLTISSLQPEDFATYYCQQDYKFPLTFGQGTKVEIKRTVAAPSDIQMTQSPSSLSASVGDRVTITCRASRHIGDWLHWYQQKPGKAPKLLIAWASTLDSGVPSRFSGSGSGTDFTLTISSLQPEDFATYYCLQEGWGPPTFGQGTKVEIKR
# notes: in-line fusion, from pDOM5
# B12: DOM10-273-ASTKGPS-DOM9-155-78 (bispecific antibody)
# chain: EVQLLESGGGLVQPGGSLRLSCAASGFTFELEEMDWVRQAPGKGLEWVSSISGSGGSTYYADSVKGRFTISRDNSKNTLYLQMNSLRAEDTAVYYCAKAYTGFDYWGQGTLVTVSSASTKGPSDIQMTQSPSSLSASVGDRVTITCRASRHIGDWLHWYQQKPGKAPKLLIAWASTLDSGVPSRFSGSGSGTDFTLTISSLQPEDFATYYCLQEGWGPPTFGQGTKVEIKR
# notes: in-line fusion, from pDOM5
# B13: DOM10-277-ASTKGPS-DOM9-155-78 (bispecific antibody)
# chain: EVQLLESGGGLVQPGGSLRLSCAASGFTFSSYEMDWVRQAPGKGLEWVSTISADGVTTYYADSVKGRFTISRDNSKNTLYLQMNSLRAEDTAVYYCAKAFDAFDYWGQGTLVTVSSASTKGPSDIQMTQSPSSLSASVGDRVTITCRASRHIGDWLHWYQQKPGKAPKLLIAWASTLDSGVPSRFSGSGSGTDFTLTISSLQPEDFATYYCLQEGWGPPTFGQGTKVEIKR
# notes: in-line fusion, from pDOM5
# B14: DOM10-416-ASTKGPS-DOM9-155-78 (bispecific antibody)
# chain: B13 chain with S30K, S31G, Y32S, V56R, T57E, A99S, F100Y, D101T, A102S
# notes: in-line fusion, from pDOM5
# B15: DOM10-236-ASTKGPS-DOM9-155-78 (bispecific antibody)
# chain: EVQLLESGGGLVQPGGSLRLSCAASGFTFPKYDMMWVRQAPGKGLEWVSSIDHLGVNTYYADSVKGRFTISRDNSKNTLYLQMNSLRAEDTAVYYCAKESDWPSFDYWGQGTLVTVSSASTKGPSDIQMTQSPSSLSASVGDRVTITCRASRHIGDWLHWYQQKPGKAPKLLIAWASTLDSGVPSRFSGSGSGTDFTLTISSLQPEDFATYYCLQEGWGPPTFGQGTKVEIKR
# notes: in-line fusion, from pDOM5
# B16: DOM9-112 (other)
# VH: EVQLLESGGGLVQPGGSLRLSCAASGFTFRNYGMAWVRQAPGKGLEWVSWIDASGTETYYADSVKGRFTISRDNSKNTLYLQMNSLRAEDTAVYYCAKSLGRFDYWGQGTLVTVSS
# notes: VH dAb
# B17: DOM9-112-210-ASTKGPS-DOM10-212 (bispecific antibody)
# chain: EVQLLESGGGLVQPGGSLRLSCAASGFTFRNFGMGWVRQAPGKGLEWVSWIISSGTETYYADSVKGRFTISRDNSKNTLYLQMNSLRAEDTAVYYCAKSLGRFDYWGQGTLVTVSSASTKGPSDIQMTQSPSSLSASVGDRVTITCRASSVILNELHWYQQKPGKAPKLLISAVSRLQSGVPSRFSGSGSGTDFTLTISSLQPEDFATYYCLQTFWGPFTFGQGTKVEIKR
# notes: in-line fusion, from pDOM5
# B18: DOM9-112-210-DOM10-270 (bispecific antibody)
# chain: B17 chain with F219Y
# notes: in-line fusion, from pDOM5
# B19: DOM9-112-210-ASTKGPS-DOM10-224 (bispecific antibody)
# chain: B3 chain with S150P, P151N, T153A, D154V, G155D, D172R, T173G, G174V
# notes: in-line fusion, from pDOM5
# B20: DOM9-112-168 (other)
# VH: B16 VH with D52E, A53G, S54G
# notes: VH dAb
# B21: DOM9-155 (other)
# VL: DIQMTQSPSSLSASVGDRVTITCRASLDIGDWLHWYQQKPGKAPKLLIGWGSGLQSGVPSRFSGSGSGTDFTLTISSLQPEDFATYYCLQEGLGPPTFGQGTKVEIKR
# notes: Vk dAb
# B22: DOM9-44 (other)
# VL: DIQMTQSPSSLSASVGDRVTITCRASQNINFWLRWYQQKPGKAPTLLIYDASALQSGVPSRFSGSGSGTDFTLTISSLQPEDFATYYCQQDFNPPYTFGQGTKVEIKR
# notes: Vk dAb
# Biological target: T2, human IL-13 (human, UniProt P35225 35-146, biotinylated on the Biacore chip)
# T2 construct: also called hIL-13; recombinant human IL-13
# T2 sequence (P35225 35-146 limits assumed): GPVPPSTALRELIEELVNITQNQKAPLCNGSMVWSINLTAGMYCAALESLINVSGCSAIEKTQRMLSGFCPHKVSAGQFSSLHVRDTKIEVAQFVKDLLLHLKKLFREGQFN
# Assay: IL-13 Biacore
row,binding result,Binder
1,binds,B1
2,binds,B2
3,binds,B3

# Biological target: T1, human IL-4
# Assay: DOM9 RBA (IL-4 RBA)
# Description: (§1) The wells were washed three times with 0.1% (v/v) Tween 20 in PBS, followed by three washes with PBS, before blocking with 2% (w/v) BSA in PBS. […] The reaction was stopped by the addition of HCl and the absorbance read at 450 nm.
row,IC50 [µM],Binder
1,0.0105,B4
2,0.00727,B5
3,0.0117,B6
4,0.0086,B7
5,0.00429,B8
6,0.00818,B9
7,0.00691,B10
8,0.00665,B11
9,0.00225,B12
10,0.00945,B13
11,0.00588,B14
12,0.00254,B15
13,0.0036,B16
14,0.00321,B17
15,0.00279,B18
16,0.00248,B3
17,0.00275,B19

# Biological target: T2, human IL-13
# Assay: Dom10 RBA (IL-13 sandwich ELISA per paragraph 471)
# Experimental: A MAXISORP™ plate (high protein binding ELISA plate, Nunc, Denmark) was coated overnight with 2.5 μg/ml coating antibody (Module Set, Bender MedSystems, Vienna, Austria), then washed once with 0.05% (v/v) Tween 20 in PBS before blocking with 0.5% (w/v) BSA 0.05% (v/v) Tween 20 in PBS. […] The plate was then incubated with TMB substrate (KPL, Gaithersburg, USA), and the reaction was stopped by the addition of HCl and the absorbance read at 450 nm.
row,EC50 [µM],Binder
1,4.55,B4
2,34.4,B5
3,4.38,B6
4,0.0372,B7
5,1.15,B8
6,4.24,B9
7,0.062,B10
8,0.0108,B11
9,0.185,B12
10,0.648,B13
11,0.444,B14
12,0.372,B15
13,1,B17
14,0.398,B18
15,4.58,B19

# Biological target: T1, human IL-4
# Assay: IL-4 RBA: ELISA, IL-4R/Fc coated, biotinylated IL-4
# Description: as §1
row,IC50,Binder
1,0.003 µM,B16
2,0.00122 µM and 0.00064 µM,B20
3,0.1 µM,B21
4,0.122 µM,B22
